The labels stand for the following.
T1: TG7 (human, UniProt Q96PF1)
T1 construct: recombinant, Zedira; also called recombinant human TG7
T1 sequence (enzyme, looked up): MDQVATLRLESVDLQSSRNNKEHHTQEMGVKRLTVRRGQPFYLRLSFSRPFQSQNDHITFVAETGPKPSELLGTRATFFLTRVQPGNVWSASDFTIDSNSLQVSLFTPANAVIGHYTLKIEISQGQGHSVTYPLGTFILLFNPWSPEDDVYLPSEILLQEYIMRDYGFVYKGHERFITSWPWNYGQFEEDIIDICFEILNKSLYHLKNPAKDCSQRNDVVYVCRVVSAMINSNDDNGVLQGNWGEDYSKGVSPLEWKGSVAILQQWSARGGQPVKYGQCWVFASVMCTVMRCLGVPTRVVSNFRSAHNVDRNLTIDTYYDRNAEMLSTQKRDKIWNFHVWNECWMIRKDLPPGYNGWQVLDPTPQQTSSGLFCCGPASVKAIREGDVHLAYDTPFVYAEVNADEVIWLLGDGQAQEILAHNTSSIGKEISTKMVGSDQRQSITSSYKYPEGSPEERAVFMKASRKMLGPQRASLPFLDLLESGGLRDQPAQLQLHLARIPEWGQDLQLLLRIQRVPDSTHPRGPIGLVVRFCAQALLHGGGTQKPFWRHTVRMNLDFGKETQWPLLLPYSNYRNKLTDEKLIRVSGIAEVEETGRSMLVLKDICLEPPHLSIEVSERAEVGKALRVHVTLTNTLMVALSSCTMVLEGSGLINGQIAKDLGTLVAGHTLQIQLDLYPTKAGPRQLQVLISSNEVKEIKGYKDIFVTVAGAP

T2: TG1 (human, UniProt P22735)
T2 construct: recombinant, Zedira; also called recombinant human TG1; Keratinocyte Transglutaminase
T2 sequence (enzyme, looked up): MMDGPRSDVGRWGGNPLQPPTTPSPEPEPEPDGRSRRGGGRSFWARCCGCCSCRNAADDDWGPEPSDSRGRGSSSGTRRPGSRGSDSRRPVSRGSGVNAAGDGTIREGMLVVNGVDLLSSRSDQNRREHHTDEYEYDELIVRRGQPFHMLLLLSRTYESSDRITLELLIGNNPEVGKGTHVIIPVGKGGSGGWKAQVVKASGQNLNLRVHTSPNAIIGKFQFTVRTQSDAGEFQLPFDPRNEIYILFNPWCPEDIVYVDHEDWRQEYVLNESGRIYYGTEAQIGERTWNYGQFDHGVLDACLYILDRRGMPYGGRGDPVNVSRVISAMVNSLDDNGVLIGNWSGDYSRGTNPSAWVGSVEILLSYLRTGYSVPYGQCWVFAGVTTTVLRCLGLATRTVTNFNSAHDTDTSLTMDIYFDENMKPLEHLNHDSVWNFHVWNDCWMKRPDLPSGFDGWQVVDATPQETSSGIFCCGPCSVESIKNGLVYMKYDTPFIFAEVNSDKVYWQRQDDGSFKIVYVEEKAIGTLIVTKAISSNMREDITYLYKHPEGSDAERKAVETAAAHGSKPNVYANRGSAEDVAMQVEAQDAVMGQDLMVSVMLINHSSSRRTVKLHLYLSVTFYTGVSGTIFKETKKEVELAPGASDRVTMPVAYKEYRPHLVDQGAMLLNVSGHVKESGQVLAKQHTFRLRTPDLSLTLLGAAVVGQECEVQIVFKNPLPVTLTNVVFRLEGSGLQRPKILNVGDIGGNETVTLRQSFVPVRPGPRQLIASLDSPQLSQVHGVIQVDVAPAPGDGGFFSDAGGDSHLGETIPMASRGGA

T3: TG3 (human, UniProt Q08188)
T3 construct: recombinant, Zedira; also called recombinant human TG3; Epidermal Transglutaminase
T3 sequence (enzyme, looked up): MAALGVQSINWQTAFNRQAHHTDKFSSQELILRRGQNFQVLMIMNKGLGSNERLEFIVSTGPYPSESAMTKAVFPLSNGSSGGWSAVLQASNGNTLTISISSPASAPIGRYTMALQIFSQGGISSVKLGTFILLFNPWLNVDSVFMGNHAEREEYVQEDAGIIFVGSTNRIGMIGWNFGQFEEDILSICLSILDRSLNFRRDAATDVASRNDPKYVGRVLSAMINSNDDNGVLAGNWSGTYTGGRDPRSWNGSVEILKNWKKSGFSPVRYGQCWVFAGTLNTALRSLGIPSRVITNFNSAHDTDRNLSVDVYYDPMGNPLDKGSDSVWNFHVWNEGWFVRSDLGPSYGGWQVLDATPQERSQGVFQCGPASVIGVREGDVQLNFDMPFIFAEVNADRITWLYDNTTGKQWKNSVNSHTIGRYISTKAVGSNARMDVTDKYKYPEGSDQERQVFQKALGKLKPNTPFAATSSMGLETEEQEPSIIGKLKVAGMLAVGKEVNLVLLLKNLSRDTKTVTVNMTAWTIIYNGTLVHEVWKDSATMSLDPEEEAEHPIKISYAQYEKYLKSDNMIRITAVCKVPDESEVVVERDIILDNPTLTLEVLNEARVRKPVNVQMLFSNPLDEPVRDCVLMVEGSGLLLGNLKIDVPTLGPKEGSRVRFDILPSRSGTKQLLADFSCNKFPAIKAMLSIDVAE

B1: AG9 murine monoclonal antibody (antibody, V domains shown)
VH: EVQLQQSGPELVKPGASVKMSCRASGYTFTTYVIHWVKQKPGQGLEWIGYINPYNDGARYNEKFKGKATLTSDKSSTTAYMELSSLTSEDSAVYYCARLSSDYWGQGTTLTVSS
VL: DVLMTQNPLSLPVSLGDQASISCRSSRSIEHSNGNTYLEWYLQKPGQSPKFLIYKVSNRFSGVPDRFSGSGSGTDFTLRISSVEAEDLGVYYCFQGSHVPFTFGGGTKLEIK
notes: Mouse hybridoma IgG; heavy chain amplified with primer MHCG1, kappa light chain
B2: AH3 murine monoclonal antibody (antibody, V domains shown)
VH: B1 VH
VL: B1 VL
notes: Mouse hybridoma IgG; heavy chain amplified with primer MHCG2B, kappa light chain
B3: EH6 murine monoclonal antibody (antibody, V domains shown)
VH: B1 VH with R23K, T31S, I34M, Y50F, A58T, R59K, S75A, L99F, D102G
VL: B1 VL with N7T, R27Q, E30V, F51L, R79K, S82R, E84G, F94L, G96V, G105S
notes: as for B2
B4: JE12 murine monoclonal antibody (antibody, V domains shown)
VH: B1 VH with R23K, T28R, T31S, I34M, P41S, R59K, T77S
VL: B1 VL with R27Q, S32I, S82R, V90I
notes: as for B1
B5: DH2 murine monoclonal antibody (antibody, V domains shown)
VH: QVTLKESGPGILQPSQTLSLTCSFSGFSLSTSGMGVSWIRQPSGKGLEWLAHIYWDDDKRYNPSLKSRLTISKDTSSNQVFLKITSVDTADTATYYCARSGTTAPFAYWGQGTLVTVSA
VL: QIVLTQSPAIMSASPGEKVTMTCSASSSVSYMYWYQQKPGSSPRLLIYDTSNLASGVPVRFSGSGSGTSYSLTISRMEAEDAATFYCQQWSSSPLTFGAGTKLELK
notes: Mouse hybridoma IgG; heavy chain amplified with primer MHCG2B, kappa light chain; also called mDH001
B6: DD9 murine monoclonal antibody (antibody, V domains shown)
VH: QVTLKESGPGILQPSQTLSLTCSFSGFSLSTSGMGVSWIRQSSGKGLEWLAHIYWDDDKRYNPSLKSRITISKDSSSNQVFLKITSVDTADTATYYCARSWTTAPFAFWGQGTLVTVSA
VL: B5 VL with S30D, E78G, F85Y, S91N
notes: Mouse hybridoma IgG; heavy chain amplified with primer MHCG2A, kappa light chain; also called mDD9001
B7: AB1 murine monoclonal antibody (antibody, V domains shown)
VH: EVQLVESGGGLVKPGGSLKLSCAASGFTLSSSAMSWVRQTPDRRLEWVATISVGGGKTYYPDSVKGRFTISRDNAKNTLYLQMNSLRSEDTAMYYCAKLISLYWGQGTTLTVSS
VL: DIKMTQSPSSMYASLGERVTITCKASQDINSYLTWFQQKPGKSPKTLIYRTNRLFDGVPSRFSGSGSGQDFFLTISSLEYEDMGIYYCLQYDDFPYTFGGGTKLEIK
notes: Mouse hybridoma IgG; heavy chain amplified with constant region primer MHCG1, kappa light chain; also called mAB003
B8: DC1 murine monoclonal antibody (antibody, V domains shown)
VH: EVQLVESGGGLVKPGGSLKLSCAASGFTLSTHAMSWVRQTPEKRLEWVATISSGGRSTYYPDSVKGRFTISRDNVKNTLYLQLSSLRSEDTAVYFCARLISTYWGQGTTLTVSS
VL: B7 VL with K3T, M11I, T46I, R50L, T51V, F55V, F71Y, F72A
notes: Mouse hybridoma IgG; heavy chain amplified with primer MHCG1, kappa light chain; also called mDC001
B9: BB7 murine monoclonal antibody (antibody, V domains shown)
VH: AVQLVESGGGLVKPGGSLKLSCAASGIIFSSSAMSWVRQTPEKRLEWVATISSGGRSTYYPDSVKGRFTVSRDSAKNTLYLQMDSLRSEDTAIYYCAKLISPYWGQGTTLTVSS
VL: B7 VL with D1A, T20I, R50L, F55M, D70E, F72L, S77G, Y80H, D92V
notes: Mouse hybridoma IgG; heavy chain amplified with primer MHCG1, kappa light chain; also called mBB001

Numbering of substitutions follows the chain as printed.

One experiment concerns the target T1, TG7. Briefly: ELISA, purified IgG at 0.1 ug/ml, plates coated with 100 ng of each TG [panel B]. As for the experimental part:
(§1) Conditioned medium or purified IgG were tested for reactivity to transglutaminase family members. The ability of each to bind to each transglutaminase (TG1, TG2, TG3, TG5, TG7 and Factor XIIIa; all Zedira) was determined using a plate binding assay. Microtiter plates (Costar, Cambridge, UK) were coated with recombinant TG (Zedira, Darmstadt, Germany) in 50 μl of 0.1 M bicarbonate/carbonate buffer (pH 9.6) overnight at 4° C. Plates were blocked for 2 h at 37° C. with 200 μl PBS containing 3% w/v BSA. Plates were washed three times with PBS containing 0.05% Tween 20 (washing buffer) and 100 μl of diluted conditioned medium (dilution 1:5 to 1:20) or purified anti-TG2 catalytic core mAbs was added. Plates were incubated for a further 1 h at room temperature. The washing step was repeated and anti-mouse gamma chain-horseradish peroxidase (1:5000) in PBS containing 0.05% Tween 20 (v:v) and 1% BSA (w:v) (Sigma, Poole UK) was added for 1 h. […] The reaction was stopped by adding 25 μl of 0.1 M H_2SO_4 and the absorbance at 450 nm was determined.
As to B1, the binding result is recorded as “no binding (tested: 0.1 ug/ml)”.
Take B2: the binding result is recorded as “no binding (tested: 0.1 ug/ml)”.
Turning to B3, the binding result is listed as “no binding (tested: 0.1 ug/ml)”.
Still for that read-out and setting: then B4, with “no binding (tested: 0.1 ug/ml)”; and B5, with “no binding (tested: 0.1 ug/ml)”; and B6, with “no binding (tested: 0.1 ug/ml)”.
On to B7, for which the binding result was “no binding (tested: 0.1 ug/ml)”.
Turning to B8, the binding result is reported as “no binding (tested: 0.1 ug/ml)”.

The target of the next experiment is T2, TG1. Nature of the experiment: ELISA, hybridoma conditioned medium, plates coated with recombinant TG (100 ng/well) [panel A]. How it is done:
as §1
With B1, the binding result is given as “no binding”.
On the same count and under the same terms, the value for B2 was “no binding”.
On the same count and under the same terms, then B3, with “no binding”; and B4, with “no binding”.
For the molecule B5, the binding result is “no binding”.
The same measure, in the same setting: then B6, with “no binding”.
Take B7: the binding result was “no binding”.
Still for that read-out and setting: the value for B9 was “no binding”; that for B8 was “no binding”.

The target in the next experiment is T3, TG3. The description is as above. As for the experimental part:
as §1
On to B1, for which the binding result is “no binding”.
On the same count and under the same terms, the value for B2 was “no binding”; that for B3 was “no binding”.
On the same count and under the same terms, the value for B4 was “no binding”; that for B5 was “no binding”.
The same measure, in the same setting: the value for B6 was “no binding”; that for B7 was “no binding”.
For the molecule B9, the binding result is reported as “no binding”.
